In PMC2118910:

Columns and labels:
Assay in all cases: cell-cell adhesion assay
[1] = biological target: human CD8 alpha mutant M5 (human) (UniProt P01732)
[2] = biological target: human CD8 alpha mutant M9 (human) (UniProt P01732)
[3] = biological target: human CD8 alpha mutant M10 (human)
[4] = biological target: human CD8 alpha mutant M1 (human)
[5] = biological target: human CD8 alpha mutant M7 (human)
[6] = biological target: human CD8 alpha mutant M4 (human) (UniProt P01732)
[7] = biological target: human CD8 alpha mutant M2 (human) (UniProt P01732)
[8] = biological target: human CD8 alpha mutant M8 (human) (UniProt P01732)
[9] = biological target: human CD8 alpha mutant M6 (human)
[10] = biological target: mouse CD8 alpha (Lyt-2) (mouse) (UniProt P01731)
Chain of UniProt P01731 (P01731 28-247): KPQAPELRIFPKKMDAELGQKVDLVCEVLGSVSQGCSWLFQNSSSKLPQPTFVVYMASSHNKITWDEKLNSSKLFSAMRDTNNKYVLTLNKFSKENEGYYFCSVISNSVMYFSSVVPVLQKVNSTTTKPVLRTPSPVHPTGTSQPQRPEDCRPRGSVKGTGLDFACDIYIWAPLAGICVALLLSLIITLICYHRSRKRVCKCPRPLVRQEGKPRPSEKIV

[11] = biological target: human CD8 alpha mutant M3 (human)

percent binding relative to wild type [1]: 11%
percent binding relative to wild type [2]: 56.9%
percent binding relative to wild type [3]: 42.6%
percent binding relative to wild type [4]: 15.7%
percent binding relative to wild type [5]: 31.3%
percent binding relative to wild type [6]: > 80%
percent binding relative to wild type [7]: 1.7%
percent binding relative to wild type [8]: > 80%
percent binding relative to wild type [9]: 49.1%
percent binding relative to wild type [10]: -0.6 to 5.8%
percent binding relative to wild type [11]: 13.5%
Substance: HLA class I on the human B lymphoblastoid cell line UC
